Reference: publication PMC8100869 (Biochemistry, 2020)

Molecular target: the molecule itself
Experiment: crystal structure

B1: Catabolite Activator Protein (CAP) (natural protein)
chain: VLGKPQTDPTLEWFLSHCHIHKYPSKSTLIHQGEKAETLYYIVKGSVAVLIKDEEGKEMILSYLNQGDFIGELGLFEEGQERSAWVRAKTACEVAEISYKKFRQLIQVNPDILMRLSAQMARRLQVTSEKVGNLAFLDVTGRIAQTLLNLAKQPDAMTHPDGMQIKITRQEIGQIVGCSRETVGRILKMLEDQNLISAHGKTIVVYGTR
Q: Does B1 bind?
A: binds
